The source of these data is patent publication US20250270328A1 (BRIGHAM AND WOMEN S HOSPITAL, published 2025).

As a reminder, the Kd is the constant that tells how readily two partners part at equilibrium. Read a high Kd as weaker binding. As usually defined, the koff is the first-order rate constant of dissociation. By kon is commonly meant the second-order rate constant of association. A low value points to slower complex formation.

Residue numbers refer to the chain shown, from its start.

To fix the notation:
T1: human KLRB1 protein extracellular domain (ECD) (human, UniProt Q12918 67-225)
T1 construct: range 67-225; The ELISA and SPR text says only 'human KLRB1 ECD'; also called human KLRB1 ECD; CD161
T1 sequence (looked up): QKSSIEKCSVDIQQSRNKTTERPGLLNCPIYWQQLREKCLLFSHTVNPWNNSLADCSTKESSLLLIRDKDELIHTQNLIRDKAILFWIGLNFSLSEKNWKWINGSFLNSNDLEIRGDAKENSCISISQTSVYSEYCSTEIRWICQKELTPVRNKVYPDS

B1: 10A3D6C109S-chimeric (antibody, human IgG1, V domains shown)
VH: EVQLQQSGPELVKPGASMKISCKASGYSFTGYTMNWVKQSHGKNLEWIGLINPNTGGTYYNQKFKDKATLTVDKSSSTAYMELLSLTSEDSAVYYCARLGDNYRGYFDSWGQGTTLTVSS
VL: DIVMTQSHKFMSTSVGDRVNITCKASQDVGTAVVWYQQTPGQSPKVLIDWASIRHTGVPDRFTGSGSGTDFTLTISSVQSEDLADYFCQQYSTYLYTFGGGTKLEIK
notes: Chimeric mutated variant; the name hIgG1k indicates human IgG1 kappa constant regions; also called 10A3D6C109ShIgG1k
B2: 10A3D6C109V-chimeric (antibody, human IgG1, V domains shown)
VH: B1 VH with S109V
VL: B1 VL
notes: Chimeric mutated variant; the name hIgG1k indicates human IgG1 kappa constant regions; also called 10A3D6C109VhIgG1k
B3: 10A3D6C109F-chimeric (antibody, human IgG1, V domains shown)
VH: B1 VH with S109F
VL: B1 VL
notes: Chimeric mutated variant; the name hIgG1k indicates human IgG1 kappa constant regions; also called 10A3D6C109FhIgG1k
B4: 10A3D6C109Chum2.2 (antibody, V domains shown)
VH: QVQLVQSGAEVKKPGASVKVSCKASGYSFTGYTMNWVRQAPGQNLEWIGLINPNTGGTYYNQKFKDRVTLTVDTSISTAYMELSRLRSDDTAVYYCARLGDNYRGYFDCWGQGTTVTVSS
VL: DIQLTQSPSFLSASVGDRVTITCKASQDVGTAVVWYQQKPGKAPKLLIDWASIRHTGVPSRFSGSGSGTEFTLTISSLQPEDFADYFCQQYSTYLYTFGGGTKLEIK
notes: Humanized variant of 10A3D6 made by CDR grafting
B5: 10A3D6C109Chum2.5 (antibody, V domains shown)
VH: B4 VH
VL: EIVMTQSPATLSVSPGERATLSCKASQDVGTAVVWYQQKPGQAPRLLIDWASIRHTGIPARFSGSGSGTEFTLTISSLQSEDFAVYYCQQYSTYLYTFGGGTKVEIK
notes: as for B4
B6: 10A3D6C109Chum2.1 (antibody, V domains shown)
VH: B4 VH
VL: B4 VL with D49Y, D85T, F87Y
notes: as for B4
B7: 10A3D6C109Chum4.3 (antibody, V domains shown)
VH: B4 VH with P41H, V68A
VL: B4 VL with K39T
notes: as for B4
B8: 10A3D6C109Chum3.1 (antibody, V domains shown)
VH: B4 VH with P41H
VL: B4 VL with D49Y, D85T, F87Y
notes: as for B4
B9: 10A3D6C109Chum3.2 (antibody, V domains shown)
VH: B4 VH with P41H
VL: B4 VL
notes: as for B4
B10: 10A3D6C109Chum1.4 (antibody, V domains shown)
VH: B4 VH with N44G, I48M, L70M, V72R
VL: B4 VL with K39T, S60D
notes: as for B4
B11: 10A3D6C109Chum5.1 (antibody, V domains shown)
VH: B4 VH with I48M, A92V, T115L
VL: B4 VL with D49Y, D85T, F87Y
notes: as for B4
B12: 10A3D6C109Chum5.4 (antibody, V domains shown)
VH: B4 VH with I48M, A92V, T115L
VL: B4 VL with K39T, S60D
notes: as for B4
B13: 10A3D6C109Chum5.3 (antibody, V domains shown)
VH: B4 VH with I48M, A92V, T115L
VL: B4 VL with K39T
notes: as for B4
B14: 10A3D6C109Chum1.3 (antibody, V domains shown)
VH: B4 VH with N44G, I48M, L70M, V72R
VL: B4 VL with K39T
notes: as for B4
B15: 10A3D6C109Chum1.2 (antibody, V domains shown)
VH: B4 VH with N44G, I48M, L70M, V72R
VL: B4 VL
notes: as for B4
B16: 10A3D6C109Chum2.3 (antibody, V domains shown)
VH: B4 VH
VL: B4 VL with K39T
notes: as for B4
B17: 10A3D6C109Chum3.4 (antibody, V domains shown)
VH: B4 VH with P41H
VL: B4 VL with K39T, S60D
notes: as for B4
B18: 10A3D6C109Chum2.4 (antibody, V domains shown)
VH: B4 VH
VL: B4 VL with K39T, S60D
notes: as for B4
B19: 10A3D6C109Chum4.1 (antibody, V domains shown)
VH: B4 VH with P41H, V68A
VL: B4 VL with D49Y, D85T, F87Y
notes: as for B4
B20: 10A3D6C109Chum5.2 (antibody, V domains shown)
VH: B4 VH with I48M, A92V, T115L
VL: B4 VL
notes: as for B4
B21: 10A3D6C109Chum3.5 (antibody, V domains shown)
VH: B4 VH with P41H
VL: B5 VL
notes: as for B4
B22: 10A3D6C109Chum1.1 (antibody, V domains shown)
VH: B4 VH with N44G, I48M, L70M, V72R
VL: B4 VL with D49Y, D85T, F87Y
notes: as for B4
B23: 10A3D6C109Chum3.3 (antibody, V domains shown)
VH: B4 VH with P41H
VL: B4 VL with K39T
notes: as for B4
B24: 10A3D6C109Chum1.5 (antibody, V domains shown)
VH: B4 VH with N44G, I48M, L70M, V72R
VL: B5 VL
notes: as for B4
B25: 10A3D6C109Chum4.4 (antibody, V domains shown)
VH: B4 VH with P41H, V68A
VL: B4 VL with K39T, S60D
notes: as for B4
B26: 10A3D6C109Chum4.2 (antibody, V domains shown)
VH: B4 VH with P41H, V68A
VL: B4 VL
notes: as for B4
B27: 10A3D6 (murine monoclonal antibody) (antibody, mouse IgG1)
heavy: EVQLQQSGPELVKPGASMKISCKASGYSFTGYTMNWVKQSHGKNLEWIGLINPNTGGTYYNQKFKDKATLTVDKSSSTAYMELLSLTSEDSAVYYCARLGDNYRGYFDCWGQGTTLTVSSAKTTPPSVYPLAPGSAAQTNSMVTLGCLVKGYFPEPVTVTWNSGSLSSGVHTFPAVLQSDLYTLSSSVTVPSSPRPSETVTCNVAHPASSTKVDKKIVPRDCGCKPCICTVPEVSSVFIFPPKPKDVLTITLTPKVTCVVVDISKDDPEVQFSWFVDDVEVHTAQTQPREEQFNSTFRSVSELPIMHQDWLNGKEFKCRVNSAAFPAPIEKTISKTKGRPKAPQVYTIPPPKEQMAKDKVSLTCMITDFFPEDITVEWQWNGQPAENYKNTQPIMNTNGSYFVYSKLNVQKSNWEAGNTFTCSVLHEGLHNHHTEKSLSHSPGK
light: DIVMTQSHKFMSTSVGDRVNITCKASQDVGTAVVWYQQTPGQSPKVLIDWASIRHTGVPDRFTGSGSGTDFTLTISSVQSEDLADYFCQQYSTYLYTFGGGTKLEIKRADAAPTVSIFPPSSEQLTSGGASVVCFLNNFYPKDINVKWKIDGSERQNGVLNSWTDQDSKDSTYSMSSTLTLTKDEYERHNSYTCEATHKTSTSPIVKSFNRNEC
notes: copies: 2 + 2

For this assay, the target named is T1, human KLRB1 protein extracellular …. In words: SPR, human KLRB1 ECD; format not stated. The procedure:
The chimeric antibody 10A3D6-hIgGlk (a mouse/human chimeric antibody with 10A3D6 variable regions and human IgG1-kappa constant regions), chimeric mutated variants (10A3D6C109S, 10A3D6C109F, and 10A3D6C109V), and humanized variants of 10A3D6 created by CDR grafting (Almagro et al. 2008) were assayed for binding against human KLRB1 extracellular domain (ECD) via surface plasma resonance (SPR).
(SPR reads the build-up and loss of mass on a sensor chip optically.)
As for B1, the equilibrium dissociation constant (Kd) is 0.0511 nM, the koff is 0.000303 s⁻¹ and the kon is 5.93e+06 M⁻¹ s⁻¹.
On to B2, for which the Kd is 0.0436 nM, the koff was determined as 0.000293 s⁻¹ and the kon was found to be 6.72e+06 M⁻¹ s⁻¹.
Turning to B3, the affinity, expressed as Kd, was 0.0627 nM; the off-rate constant (koff) was determined as 0.000336 s⁻¹; the kon came out at 5.36e+06 M⁻¹ s⁻¹.
Regarding B4, the affinity, expressed as Kd, was 0.106 nM; the koff amounted to 9.54e-05 s⁻¹; the kon is 903000 M⁻¹ s⁻¹.
In the same order, the values of B5 are 0.11 nM, 9.49e-05 s⁻¹ and 861000 M⁻¹ s⁻¹.
Take B6: the affinity, expressed as Kd, was 12.9 nM; the off-rate (koff) was found to be 0.00408 s⁻¹; the kon was 315000 M⁻¹ s⁻¹.
In turn, B7 yielded an equilibrium dissociation constant (Kd) of 0.127 nM, a koff of 0.000109 s⁻¹ and a kon of 851000 M⁻¹ s⁻¹.
Regarding B8, binding was put at a Kd of 15.8 nM, the koff is 0.00721 s⁻¹ and the kon stood at 457000 M⁻¹ s⁻¹.
In the same order, the values of B9 are 0.135 nM, 0.000112 s⁻¹ and 832000 M⁻¹ s⁻¹.
Molecule B10 displayed a Kd of 0.0717 nM, a koff of 8.6e-05 s⁻¹ and a kon of 1.2e+06 M⁻¹ s⁻¹.
As for B11, the equilibrium dissociation constant (Kd) is 10.2 nM, the koff was 0.0196 s⁻¹ and the kon amounted to 1.92e+06 M⁻¹ s⁻¹.
As for B12, the Kd came out at 0.143 nM, the koff amounted to 0.000133 s⁻¹ and the kon was 930000 M⁻¹ s⁻¹.
In the same order, the values of B13 are 0.155 nM, 0.000134 s⁻¹ and 868000 M⁻¹ s⁻¹.
B14 came in with a Kd of 0.1 nM, a koff of 0.0001 s⁻¹ and a kon of 999000 M⁻¹ s⁻¹.
On the same counts, the results for B15 are 0.0932 nM, 9.35e-05 s⁻¹ and 1e+06 M⁻¹ s⁻¹.
As to B16, the affinity, expressed as Kd, was 0.0985 nM; the koff came to 9.41e-05 s⁻¹; the kon was determined as 955000 M⁻¹ s⁻¹.
For the molecule B17, the Kd was 0.0907 nM, the koff was determined as 9.2e-05 s⁻¹ and the kon was 1.01e+06 M⁻¹ s⁻¹.
In the case of B18, the Kd came to 0.0976 nM, the koff is 9.68e-05 s⁻¹ and the kon turned out to be 992000 M⁻¹ s⁻¹.
In the same order, the values of B19 are 21.7 nM, 0.00253 s⁻¹ and 117000 M⁻¹ s⁻¹.
B20 came in with a Kd of 0.173 nM, a koff of 0.000138 s⁻¹ and an on-rate constant (kon) of 800000 M⁻¹ s⁻¹.
B21 came in with a dissociation constant Kd of 0.144 nM, a koff of 0.000114 s⁻¹ and a kon of 792000 M⁻¹ s⁻¹.
Turning to B22, binding was characterised by a dissociation constant (Kd) of 9.42 nM, the koff was 0.00296 s⁻¹ and the kon is 314000 M⁻¹ s⁻¹.
B23: the Kd stood at 0.109 nM, the koff came out at 9.89e-05 s⁻¹ and the kon was 905000 M⁻¹ s⁻¹.
On the same counts, the results for B24 are 0.0881 nM, 9e-05 s⁻¹ and 1.02e+06 M⁻¹ s⁻¹.
For the molecule B25, the Kd was 0.103 nM, the koff was 9.88e-05 s⁻¹ and the on-rate (kon) was 963000 M⁻¹ s⁻¹.
On the same counts, the results for B26 are 0.121 nM, 0.000107 s⁻¹ and 880000 M⁻¹ s⁻¹.
B27 came in with an equilibrium dissociation constant (Kd) of 0.259 nM, a koff of 0.000123 s⁻¹ and a kon of 475000 M⁻¹ s⁻¹.
